Measurements taken from patent US20110318339A1 (FABRUS, published 2011).
Residue numbers refer to the chain shown, from its start. In names and notes the source's numbering stands.

B1: Fab VH5-51_IGHD5-18*01>3_IGHJ4*01 G100K/G104T G24T/S28R/G35V & V3-4_IGLJ1*01 V91L/S96P S52Y (Fab, V domains shown)
VH: EVQLVQSGAEVKKPGESLKISCKTSGYRFTSYWIVWVRQMPGKGLEWMGIIYPGDSDTRYSPSFQGQVTISADKSISTAYLQWSSLKASDTAMYYCARRKYSYTYDYFDYWGQGTLVTVSS
VL: QTVVTQEPSFSVSPGGTVTLTCGLSSGSVSTSYYPSWYQQTPGQAPRTLIYYTNTRSSGVPDRFSGSILGNKAALTITGAQADDESDYYCLLYMGPGISYVFGTGTKVTVL
notes: Fab made in E. coli: VH on CH1 with His6 and Flag tags (Plasmid A), VL on lambda CL (Plasmid E); also called H: KT TRV & L: LP S52Y
B2: Fab VH5-51_IGHD5-18*01>3_IGHJ4*01 G100K/G104T G24T/S28R/G35V & V3-4_IGLJ1*01 V91L/S96P S52L (Fab, V domains shown)
VH: B1 VH
VL: B1 VL with Y52L
notes: Fab made in E. coli: VH on CH1 with His6 and Flag tags (Plasmid A), VL on lambda CL (Plasmid E); also called H: KT TRV & L: LP S52L
B3: Fab VH5-51_IGHD5-18*01>3_IGHJ4*01 G100K/G104T G24T/S28R/G35V & V3-4_IGLJ1*01 V91L/S96P S52P (Fab, V domains shown)
VH: B1 VH
VL: B1 VL with Y52P
notes: Fab made in E. coli: VH on CH1 with His6 and Flag tags (Plasmid A), VL on lambda CL (Plasmid E); also called H: KT TRV & L: LP S52P
B4: Fab VH5-51_IGHD5-18*01>3_IGHJ4*01 G100K/G104T G24T/S28R/G35V & V3-4_IGLJ1*01 V91L/S96P S52Q (Fab, V domains shown)
VH: B1 VH
VL: B1 VL with Y52Q
notes: Fab made in E. coli: VH on CH1 with His6 and Flag tags (Plasmid A), VL on lambda CL (Plasmid E); also called H: KT TRV & L: LP S52Q
B5: Fab VH5-51_IGHD5-18*01>3_IGHJ4*01 G100K/G104T G24T/S28R/G35V & V3-4_IGLJ1*01 V91L/S96P S52I (Fab, V domains shown)
VH: B1 VH
VL: B1 VL with Y52I
notes: Fab made in E. coli: VH on CH1 with His6 and Flag tags (Plasmid A), VL on lambda CL (Plasmid E); also called H: KT TRV & L: LP S52I
B6: Fab VH5-51_IGHD5-18*01>3_IGHJ4*01 G100K/G104T G24T/S28R/G35V & V3-4_IGLJ1*01 V91L/S96P S52T (Fab, V domains shown)
VH: B1 VH
VL: B1 VL with Y52T
notes: Fab made in E. coli: VH on CH1 with His6 and Flag tags (Plasmid A), VL on lambda CL (Plasmid E); also called H: KT TRV & L: LP S52T
B7: Fab VH5-51_IGHD5-18*01>3_IGHJ4*01 G100K/G104T G24T/S28R/G35V & V3-4_IGLJ1*01 V91L/S96P S52N (Fab, V domains shown)
VH: B1 VH
VL: B1 VL with Y52N
notes: Fab made in E. coli: VH on CH1 with His6 and Flag tags (Plasmid A), VL on lambda CL (Plasmid E); also called H: KT TRV & L: LP S52N
B8: Fab VH5-51_IGHD5-18*01>3_IGHJ4*01 G100K/G104T G24T/S28R/G35V & V3-4_IGLJ1*01 V91L/S96P S52H (Fab, V domains shown)
VH: B1 VH
VL: B1 VL with Y52H
notes: Fab made in E. coli: VH on CH1 with His6 and Flag tags (Plasmid A), VL on lambda CL (Plasmid E); also called H: KT TRV & L: LP S52H
B9: Fab VH5-51_IGHD5-18*01>3_IGHJ4*01 G100K/G104T G24T/S28R/G35V & V3-4_IGLJ1*01 V91L/S96P S52F (Fab, V domains shown)
VH: B1 VH
VL: B1 VL with Y52F
notes: Fab made in E. coli: VH on CH1 with His6 and Flag tags (Plasmid A), VL on lambda CL (Plasmid E); also called H: KT TRV & L: LP S52F
B10: Fab VH1-46_IGHD6-6*01_IGHJ1*01 S102A/S103P/S104F/H111F G56H & L6_IGKJ1*01 (Fab, V domains shown)
VH: QVQLVQSGAEVKKPGASVKVSCKASGYTFTSYYMHWVRQAPGQGLEWMGIINPSGHSTSYAQKFQGRVTMTRDTSTSTVYMELSSLRSEDTAVYYCAREEYAPFSAEYFQFWGQGTLVTVSS
VL: not shown
notes: Fab made in E. coli: VH on CH1 with His6 and Flag tags (Plasmid A), VL on kappa CL (Plasmid C); also called H: APFF G56H & L: wt

Biological target: T1, recombinant human DLL4 (Cat# 1506-D4/CF, R&D Systems) (human, UniProt Q9NR61 27-529)
T1 construct: Bought protein; also called hDLL4; rHuman DLL4
Experiment: ELISA, DLL4 coated, Fab 25 nM
Protocol: (§1) The plate was blocked by adding 1% BSA in Tris-buffered Saline Tween (TBST) and incubating for 1 hour at room temperature followed by washing 2 times with 150 μl TBST. A Fab antibody was serially diluted in 1% BSA in PBS. A 50 μl aliquot of each serial dilution was added, in triplicate, to each well and the plate was incubated for 1 hour at room temperature followed by washing 2 times with TBST. 50 μl of either goat anti-human kappa HRP conjugated secondary antibody (Cat # A7164-1 mL, Sigma-Aldrich) or goat anti-human lambda HRP conjugated secondary antibody (Cat # L1645-1 ml, Sigma-Aldrich), diluted 1:1000 in 1% BSA in PBS, was added to each well and the plate was incubated for 30 minutes at room temperature followed by washing 3 times with 200 μl TBST. Finally, 50 μl TMB one-component reagent (Cat # TMBW-1000-01, BioFax) was added and allowed to develop for 2 minutes at room temperature. The reaction was immediately halted by the addition of 50 μl 0.5M H₂SO₄ and the absorbance at 450 nm was measured using an ELISA plate reader.

**Q.** For B1, which “ELISA absorbance at 450 nm” value is on record?
**A.** 0.56 A450

**Q.** With B2 as the binder, how does the “ELISA absorbance at 450 nm” value read?
**A.** 0.58 A450

**Q.** Which “ELISA absorbance at 450 nm” value does the source give for B3 here?
**A.** 0.59 A450

**Q.** For B4, which “ELISA absorbance at 450 nm” value is on record?
**A.** 0.67 A450

**Q.** How did the “ELISA absorbance at 450 nm” value turn out when B5 was run?
**A.** 0.6 A450

**Q.** With B6 as the binder, how does the “ELISA absorbance at 450 nm” value read?
**A.** 0.62 A450

**Q.** How did the “ELISA absorbance at 450 nm” value turn out when B7 was run?
**A.** 0.86 A450

**Q.** Which “ELISA absorbance at 450 nm” value does the source give for B8 here?
**A.** 0.73 A450

**Q.** For B9, which “ELISA absorbance at 450 nm” value is on record?
**A.** 0.49 A450

Biological target: T1, recombinant human DLL4 (Cat# …)
Experiment: ELISA, DLL4 coated, Fab 50 nM
Protocol: (§2) In this example, an ELISA binding assay was used to assess the dose-dependent binding of Fab antibodies to recombinant human DLL4 and recombinant mouse DLL4.
as §1

**Q.** Which “ELISA absorbance at 450 nm” value does the source give for B1 here?
**A.** 0.72 A450

**Q.** For B2, which “ELISA absorbance at 450 nm” value is on record?
**A.** 0.78 A450

**Q.** For B3, which “ELISA absorbance at 450 nm” value is on record?
**A.** 0.79 A450

**Q.** B4 was tested. Which “ELISA absorbance at 450 nm” value did it give?
**A.** 0.81 A450

**Q.** B5 was tested. Which “ELISA absorbance at 450 nm” value did it give?
**A.** 0.82 A450

**Q.** Which “ELISA absorbance at 450 nm” value does the source give for B6 here?
**A.** 0.79 A450

**Q.** How did the “ELISA absorbance at 450 nm” value turn out when B7 was run?
**A.** 0.9 A450

**Q.** With B8 as the binder, how does the “ELISA absorbance at 450 nm” value read?
**A.** 0.91 A450

**Q.** How did the “ELISA absorbance at 450 nm” value turn out when B9 was run?
**A.** 0.69 A450

Biological target: T1, recombinant human DLL4 (Cat# …)
Experiment: ELISA, DLL4 coated, Fab 100 nM
Protocol: as §2, §1

**Q.** Which “ELISA absorbance at 450 nm” value does the source give for B1 here?
**A.** 0.9 A450

**Q.** With B2 as the binder, how does the “ELISA absorbance at 450 nm” value read?
**A.** 1.02 A450

**Q.** B3 was tested. Which “ELISA absorbance at 450 nm” value did it give?
**A.** 1 A450

**Q.** How did the “ELISA absorbance at 450 nm” value turn out when B4 was run?
**A.** 0.96 A450

**Q.** Which “ELISA absorbance at 450 nm” value does the source give for B5 here?
**A.** 1.04 A450

**Q.** How did the “ELISA absorbance at 450 nm” value turn out when B6 was run?
**A.** 0.99 A450

**Q.** For B7, which “ELISA absorbance at 450 nm” value is on record?
**A.** 1.05 A450

**Q.** With B8 as the binder, how does the “ELISA absorbance at 450 nm” value read?
**A.** 1.09 A450

**Q.** For B9, which “ELISA absorbance at 450 nm” value is on record?
**A.** 0.99 A450

Biological target: T1, recombinant human DLL4 (Cat# …)
Experiment: ELISA, DLL4 coated, Fab 12.5 nM
Protocol: as §2, §1

**Q.** Which “ELISA absorbance at 450 nm” value does the source give for B1 here?
**A.** 0.41 A450

**Q.** Which “ELISA absorbance at 450 nm” value does the source give for B2 here?
**A.** 0.43 A450

**Q.** For B3, which “ELISA absorbance at 450 nm” value is on record?
**A.** 0.43 A450

**Q.** For B4, which “ELISA absorbance at 450 nm” value is on record?
**A.** 0.47 A450

**Q.** How did the “ELISA absorbance at 450 nm” value turn out when B5 was run?
**A.** 0.4 A450

**Q.** For B6, which “ELISA absorbance at 450 nm” value is on record?
**A.** 0.41 A450

**Q.** Which “ELISA absorbance at 450 nm” value does the source give for B7 here?
**A.** 0.65 A450

**Q.** With B8 as the binder, how does the “ELISA absorbance at 450 nm” value read?
**A.** 0.5 A450

**Q.** B9 was tested. Which “ELISA absorbance at 450 nm” value did it give?
**A.** 0.42 A450

Biological target: T1, recombinant human DLL4 (Cat# …)
Experiment: SPR (ProteOn), hDLL4 amine-coupled on chip
Protocol: In this example, the binding affinities of selected anti-DLL4 Fabs to recombinant human DLL4 (hDLL4, Cat# 1506-D4/CF, R&D Systems) were analyzed using Surface Plasmon Resonance (SPR) (Biosensor Tools, Salt Lake City, Utah). The Fabs analyzed include germline-derived antibodies and germline-modified DLL4 antibodies. Recombinant hDLL4 was immobilized on a SPR chip using amine coupling at three different surface densities. The Fabs were serially diluted 3-fold, with an initial concentration of 1 μM. Binding studies were run on a ProteOn system using a GLM sensor chip in 10 mM HEPES, pH 7.4, 150 mM NaCl, 0.01% Tween-20, and 0.1 mg/ml BSA at 25° C. The response data from each surface was globally fit to determine the binding constants.

**Q.** How did the Kd turn out when B10 was run?
**A.** 32.7 nM

**Q.** What about the koff of the same binder?
**A.** 0.0101 s⁻¹

**Q.** And the kon?
**A.** 351000 M⁻¹ s⁻¹
